This note sets out measurements from patent US9637768B2, “Method for preparing sialic acid derivative” (priority 2013, dated 2017).

Series [1] concerns Photobacterium damselae α-2,6-sialyltransferase (α2,6PdST), all mutants of Table 3 (I411T, L433S, L433T, I411T/L433S, I411T/L433T). The series is described as follows: kinetic parameters for α-2,6-sialyltransferase, all mutants (summary). Conditions: all mutants vs wild type. Type of series: biochemical. The protocol:
The kinetic parameters, kcat and Km, were obtained from nonlinear regression analysis of Michaelis-Menten equation using Sigma Plot (SigmaPlot) program.
In order to appreciate the effect of each mutation on the donor substrate and the acceptor substrate, kinetic parameters for a single amino acid substitution mutant and a combinatorial mutant were measured.

Series [2] relates to CC(=O)N[C@H]1[C@H]([C@H](O)[C@H](O)CO)O[C@](OP(=O)(O)OC[C@H]2O[C@@H](n3ccc(N)nc3=O)[C@H](O)[C@@H]2O)(C(=O)O)C[C@@H]1O. Kind of series: purified protein, by the assay type. Conditions: other: room temperature, substrate 0.1 to 30 mM.
The test system of the next series is α-2,6-sialyltransferase. The source says:
The entire vector was subjected to PCR using a primer into which NNK sequence (a sequence where N is A, C, G or T, K is G or T) is introduced, the NNK sequence obtained by randomly replacing ATT and CTG sequences corresponding to amino acid positions 411 and 433 of α-2,6-sialyltransferase, thereby constructing a library. In α-2,6-sialyltransferase of the present invention, methionine is the first amino acid when counting from the first methionine sequence. In order to remove the original plasmid, the amplified gene of the sialyltransferase including the vector sequence was treated with Dpn enzyme and transformed into E. coli DH5a. Mutant genes were extracted from all of generated colonies and transformed into E. coli BW25113 (DE3). The transformed individual colonies were inoculated in the LB medium (500 μL) containing ampicillin in 96 well and shake-cultured at 30 to 37° C. for 18 to 24 hours, and then some of the culture liquid was inoculated in new LB medium (500 μL) containing 100 μg mL^−1 ampicillin and IPTG and cultured at 18 to 30° C. for 18 to 40 hours. […]
The wild type strain and mutants of sialyltransferase transformed into E. coli BW25113 (DE3) were expressed using the inducer IPTG in a culture volume of 50 mL, and purified to obtain only pure protein using Ni-NTA column, and specific activity and kinetic parameters were measured.

As to `OC[C@H]1O[C@@H](O[C@H]2[C@H](O)[C@@H](O)C(O)O[C@@H]2CO)[C@H](O)[C@@H](O)[C@H]1O` (stereo partly drawn) [Lac, lactose], the “binding force with the acceptor substrate” value in series [1] is listed as “reduced”.

Broadly, the Km is the concentration of substrate that gives half-maximal velocity. As for “Pasteurella multocida (ATCC15742) α-2,3-sialyltransferase (α2,3PST), wild type, SEQ ID NO: 1 (Pasteurella multocida)”, the Km in series [2] (wild type) was found to be 1830 µM.

Consider “Pasteurella multocida α-2,3-sialyltransferase (α2,3PST) variant R313H (= R289H of SEQ ID NO: 1), SEQ ID NO: 3 (Pasteurella multocida; R313H)”, for which the Km in series [2] (R313H) turned out to be 3240 µM. As for “Pasteurella multocida α-2,3-sialyltransferase (α2,3PST) variant R313H/T265S (= R289H/T241S of SEQ ID NO: 1), SEQ ID NO: 6 (Pasteurella multocida; R313H/T265S)”, the Km in series [2] (R313H/T265S) came to 3940 µM. For the molecule “Pasteurella multocida α-2,3-sialyltransferase (α2,3PST) variant R313N (= R289N of SEQ ID NO: 1), SEQ ID NO: 2 (Pasteurella multocida; R313N)”, in series [2] (R313N), the Km was determined as 2510 µM. “Pasteurella multocida α-2,3-sialyltransferase (α2,3PST) variant R313N/T265S (= R289N/T241S of SEQ ID NO: 1), SEQ ID NO: 5 (Pasteurella multocida; R313N/T265S)”: the Km in series [2] (R313N/T265S) turned out to be 3330 µM. As for “Pasteurella multocida α-2,3-sialyltransferase (α2,3PST) variant T265S (= T241S of SEQ ID NO: 1), SEQ ID NO: 4 (Pasteurella multocida; T265S)”, in series [2] (T265S), the Km amounted to 2230 µM.

B1: L433T (protein)
chain: MCNSDNTSLKETVSSNSADVVETETYQLTPIDAPSSFLSHSWEQTCGTPILNESDKQAISFDFVAPELKQDEKYCFTFKGITGDHRYITNTTLTVVAPTLEVYIDHASLPSLQQLIHIIQAKDEYPSNQRFVSWKRVTVDADNANKLNIHTYPLKGNNTSPEMVAAIDEYAQSKNRLNIEFYTNTAHVFNNLPPIIQPLYNNEKVKISHISLYDDGSSEYVSLYQWKDTPNKIETLEGEVSLLANYLAGTSPDAPKGMGNRYNWHKLYDTDYYFLREDYLDVEANLHDLRDYLGSSAKQMPWDEFAKLSDSQQTLFLDIVGFDKEQLQQQYSQSPLPNFIFTGTTTWAGGETKEYYAQQQVNVINNAINETSPYYLGKDYDLFFKGHPAGGVINDIILGSFPDMINIPAKISFEVLMMTDMLPDTVAGIASSTYFTIPADKVNFIVFTSSDTITDREEALKSPLVQVMLTLGIVKEKDVLFWA
modifications: L433T
Consider B1, for which the “activity increase compared to the wild type strain” value with α-2,6-sialyltransferase (mutant search by colorimetry) was determined as 3 times. In the series with α-2,6-sialyltransferase (α2,6PdST, relative to wild type, purified protein, CMP-N-acetylneuraminic acid and lactose), the “Rel. Specific Ac (%)” value is 296%.
